# From IntAct's records for PubMed 11359767
# B1: E3 ubiquitin-protein ligase NEDD4 (Homo sapiens), P46934 (parent)
# chain: MAQSLRLHFAARRSNTYPLSETSGDDLDSHVHMCFKRPTRISTSNVVQMKLTPRQTALAPLIKENVQSQERSSVPSSENVNKKSSCLQISLQPTRYSGYLQSSNVLADSDDASFTCILKDGIYSSAVVDNELNAVNDGHLVSSPAICSGSLSNFSTSDNGSYSSNGSDFGSCASITSGGSYTNSVISDSSSYTFPPSDDTFLGGNLPSDSTSNRSVPNRNTTPCEIFSRSTSTDPFVQDDLEHGLEIMKLPVSRNTKIPLKRYSSLVIFPRSPSTTRPTSPTSLCTLLSKGSYQTSHQFIISPSEIAHNEDGTSAKGFLSTAVNGLRLSKTICTPGEVRDIRPLHRKGSLQKKIVLSNNTPRQTVCEKSSEGYSCVSVHFTQRKAATLDCETTNGDCKPEMSEIKLNSDSEYIKLMHRTSACLPSSQNVDCQININGELERPHSQMNKNHGILRRSISLGGAYPNISCLSSLKHNCSKGGPSQLLIKFASGNEGKVDNLSRDSNRDCTNELSNSCKTRDDFLGQVDVPLYPLPTENPRLERPYTFKDFVLHPRSHKSRVKGYLRLKMTYLPKTSGSEDDNAEQAEELEPGWVVLDQPDAACHLQQQQEPSPLPPGWEERQDILGRTYYVNHESRRTQWKRPTPQDNLTDAENGNIQLQAQRAFTTRRQISEETESVDNRESSENWEIIREDEATMYSNQAFPSPPPSSNLDVPTHLAEELNARLTIFGNSAVSQPASSSNHSSRRGSLQAYTFEEQPTLPVLLPTSSGLPPGWEEKQDERGRSYYVDHNSRTTTWTKPTVQATVETSQLTSSQSSAGPQSQASTSDSGQQVTQPSEIEQGFLPKGWEVRHAPNGRPFFIDHNTKTTTWEDPRLKIPAHLRGKTSLDTSNDLGPLPPGWEERTHTDGRIFYINHNIKRTQWEDPRLENVAITGPAVPYSRDYKRKYEFFRRKLKKQNDIPNKFEMKLRRATVLEDSYRRIMGVKRADFLKARLWIEFDGEKGLDYGGVAREWFFLISKEMFNPYYGLFEYSATDNYTLQINPNSGLCNEDHLSYFKFIGRVAGMAVYHGKLLDGFFIRPFYKMMLHKPITLHDMESVDSEYYNSLRWILENDPTELDLRFIIDEELFGQTHQHELKNGGSEIVVTNKNKKEYIYLVIQWRFVNRIQKQMAAFKEGFFELIPQDLIKIFDENELELLMCGLGDVDVNDWREHTKYKNGYSANHQVIQWFWKAVLMMDSEKRIRLLQFVTGTSRVPMNGFAELYGSNGPQSFTVEQWGTPEKLPRAHTCFNRLDLPPYESFEELWDKLQMAIENTQGFDGVD
# partner: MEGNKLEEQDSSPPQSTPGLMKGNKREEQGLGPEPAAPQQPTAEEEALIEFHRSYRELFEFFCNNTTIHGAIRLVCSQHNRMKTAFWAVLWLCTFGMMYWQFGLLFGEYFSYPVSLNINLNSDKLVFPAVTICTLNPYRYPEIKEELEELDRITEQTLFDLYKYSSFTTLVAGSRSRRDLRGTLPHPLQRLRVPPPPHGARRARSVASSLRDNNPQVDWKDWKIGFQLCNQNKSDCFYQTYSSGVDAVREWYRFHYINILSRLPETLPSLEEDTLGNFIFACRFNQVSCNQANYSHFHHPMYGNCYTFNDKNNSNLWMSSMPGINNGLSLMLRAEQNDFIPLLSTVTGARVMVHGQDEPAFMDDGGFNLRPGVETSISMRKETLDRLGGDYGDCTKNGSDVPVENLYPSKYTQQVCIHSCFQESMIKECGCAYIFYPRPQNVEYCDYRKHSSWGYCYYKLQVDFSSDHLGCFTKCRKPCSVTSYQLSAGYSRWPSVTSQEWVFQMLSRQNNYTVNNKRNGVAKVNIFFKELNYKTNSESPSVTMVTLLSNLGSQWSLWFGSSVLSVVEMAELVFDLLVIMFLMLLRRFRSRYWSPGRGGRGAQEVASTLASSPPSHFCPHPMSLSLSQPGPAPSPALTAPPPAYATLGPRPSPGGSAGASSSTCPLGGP
# Variants of: B1
# Settings: with scnna_human SCNN1A
row,Variant,effect of a mutation on the interaction
1,V629W;H631G;V786W;H788G;I859W;H861G;I911W;H913G,disrupting interaction strength
2,I911W;H913G,with no effect
3,V629W;H631G,with no effect
4,V786W;H788G;I859W;H861G;I911W;H913G,disrupting interaction strength
5,V786W;H788G,with no effect
6,V629W;H631G;I859W;H861G;I911W;H913G,disrupting interaction strength
7,V629W;H631G;V786W;H788G;I859W;H861G,disrupting interaction strength
8,I859W;H861G,disrupting interaction strength
9,V629W;H631G;V786W;H788G;I911W;H913G,with no effect
